Measured values: patent publication US20040219131A1 (MAXYGEN, published 2004)
Residue numbers refer to the chain shown, from its start.

B1: B9x27 (ligand)
chain: CDLPQTHSLSNRRTLMLMAQMRRISPFSCLKDRHDFGFPEEEFDGHQFQKVQAIFLLYELIQQTFNLFSTKNSSAAWDETLLEKFYIELFQQMNNLEACVIQEVGVEEIALMNVDSILAVRKYFRRITLYLTKKKYSPCSWEVVRAEIMRSFSFSTNLQKRLRRKE
B2: B9x22 (ligand)
chain: B1 chain with Q47H, V51T, F55S, L56V, Y58H, K133E, S140A
B3: B9x28 (ligand)
chain: B1 chain with Q47H
B4: B9x25 (ligand)
chain: B1 chain with Q47H, K133E, S140A
B5: B9x24 (ligand)
chain: B1 chain with V51T, F55S, L56V, Y58H
B6: B9x23 (ligand)
chain: B1 chain with K133E, S140A
B7: B9x21 (ligand)
chain: B1 chain with V51T, F55S, L56V, Y58H, K133E, S140A
B8: B9x26 (ligand)
chain: B1 chain with Q47H, V51T, F55S, L56V, Y58H
B9: IFN-alpha Con1 (ligand)
chain: CDLPQTHSLGNRRALILLAQMRRISPFSCLKDRHDFGFPQEEFDGNQFQKAQAISVLHEMIQQTFNLFSTKDSSAAWDESLLEKFYTELYQQLNDLEACVIQEVGVEETPLMNVDSILAVKKYFQRITLYLTEKKYSPCAWEVVRAEIMRSFSLSTNLQERLRRKE
B10: B9x14 (ligand)
chain: CDLPQTHSLGHRRTMMLLAQMRRISLFSCLKDRHDFRFPQEEFDGNHFQKVQAIFLFYEMMQQTFNLFSTKNSSAAWDETLLEKFYIELFQQMNDLEACVMQEVGVEETPLMNVDSILAVRKYFQRITLYLTEKKYSPCAWEVVRAEIMRSFSFSTNLQKRLRRKE
B11: B9x16 (ligand)
chain: B10 chain with H47Q
B12: B9x12 (ligand)
chain: B10 chain with H47Q, E133K, A140S
B13: B9x11 (ligand)
chain: B10 chain with E133K, A140S
B14: B9x17 (ligand)
chain: B10 chain with V51T, F55S, L56V, Y58H
B15: B9x18 (ligand)
chain: B10 chain with H47Q, V51T, F55S, L56V, Y58H
B16: B9x15 (ligand)
chain: B10 chain with H47Q, V51T, F55S, L56V, Y58H, E133K, A140S
B17: 25Ep05 (ligand)
chain: CDLPQTHSLSNRRTLMLMAQMRRISPFSCLKDRHDFGFPEEEFDGHQFQKTQAISVLHELIQQTFNLFSTKDSSAAWDETLLEKFYIELFQQMNDLEACVIQEVGVEEIALMNVDSILAVRKYFRRITLYLTEKKYSPCAWEVVRAEIMRSFSLSTNLQESLRSKE

biological target: T1, interferon-alpha receptor (human, UniProt P17181 28-557; P48551 27-515); experiment: cell-based or functional assay
T1 sequence (looked up) 1: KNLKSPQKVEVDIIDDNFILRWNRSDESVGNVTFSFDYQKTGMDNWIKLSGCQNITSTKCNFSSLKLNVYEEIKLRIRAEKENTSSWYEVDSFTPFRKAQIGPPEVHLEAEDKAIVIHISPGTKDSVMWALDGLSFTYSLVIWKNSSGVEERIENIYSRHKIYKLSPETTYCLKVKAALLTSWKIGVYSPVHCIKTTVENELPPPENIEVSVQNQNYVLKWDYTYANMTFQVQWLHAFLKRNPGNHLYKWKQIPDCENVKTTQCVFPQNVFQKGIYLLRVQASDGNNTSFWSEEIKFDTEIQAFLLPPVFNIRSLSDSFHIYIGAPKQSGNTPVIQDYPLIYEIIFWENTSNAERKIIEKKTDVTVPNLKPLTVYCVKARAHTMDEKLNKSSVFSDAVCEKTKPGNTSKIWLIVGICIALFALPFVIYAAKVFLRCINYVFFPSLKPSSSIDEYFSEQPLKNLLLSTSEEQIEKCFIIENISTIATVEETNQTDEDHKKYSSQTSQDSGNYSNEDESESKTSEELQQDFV
T1 sequence (looked up) 2: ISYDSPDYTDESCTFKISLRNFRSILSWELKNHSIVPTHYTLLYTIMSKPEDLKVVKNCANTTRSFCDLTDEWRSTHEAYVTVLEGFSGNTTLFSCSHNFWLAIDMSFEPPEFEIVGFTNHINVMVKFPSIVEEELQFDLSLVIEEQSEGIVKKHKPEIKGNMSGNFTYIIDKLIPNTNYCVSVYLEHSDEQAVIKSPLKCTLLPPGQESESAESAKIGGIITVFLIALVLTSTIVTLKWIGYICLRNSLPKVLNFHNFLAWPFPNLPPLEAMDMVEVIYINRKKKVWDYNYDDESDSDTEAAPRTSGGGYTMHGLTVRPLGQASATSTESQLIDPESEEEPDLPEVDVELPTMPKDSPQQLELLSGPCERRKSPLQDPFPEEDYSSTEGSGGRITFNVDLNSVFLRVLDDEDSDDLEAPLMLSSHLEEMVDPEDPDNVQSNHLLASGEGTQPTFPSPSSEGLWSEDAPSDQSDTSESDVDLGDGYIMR

Binder	Antiviral activity relative to huIFNα-2b (EC50 huIFN-alpha 2b/EC50 sample), EMCV/HuH-7 assay
B1	≥ 10 fold relative to huIFNα-2b
B2	≥ 10 fold relative to huIFNα-2b
B3	≥ 10 fold relative to huIFNα-2b
B4	≥ 10 fold relative to huIFNα-2b
B5	≥ 5 fold relative to huIFNα-2b
B6	≥ 10 fold relative to huIFNα-2b
B7	≥ 10 fold relative to huIFNα-2b
B8	≥ 5 fold relative to huIFNα-2b
B9	~2 fold relative to huIFNα-2b
B10	≥ 10 fold relative to huIFNα-2b
B11	≥ 10 fold relative to huIFNα-2b
B12	≥ 10 fold relative to huIFNα-2b
B13	≥ 10 fold relative to huIFNα-2b
B14	≥ 10 fold relative to huIFNα-2b
B15	≥ 10 fold relative to huIFNα-2b
B16	≥ 5 fold relative to huIFNα-2b
B17	≥ 2.5 fold relative to huIFNα-2b

biological target: T1, interferon-alpha receptor; experiment: cell-based or functional assay; remark: another data set of the same source

Binder	Antiproliferative activity relative to huIFNα-2b (EC50 huIFN-alpha 2b/EC50 sample), Daudi cell thymidine incorporation assay
B1	≤ 0.25 fold relative to huIFNα-2b
B2	≤ 0.5 fold relative to huIFNα-2b
B4	≤ 0.5 fold relative to huIFNα-2b
B5	≤ 0.25 fold relative to huIFNα-2b
B6	≤ 0.5 fold relative to huIFNα-2b
B7	≤ 0.5 fold relative to huIFNα-2b
B8	≤ 0.25 fold relative to huIFNα-2b
B9	~1.5 fold relative to huIFNα-2b
B10	≤ 0.5 fold relative to huIFNα-2b
B11	≤ 0.25 fold relative to huIFNα-2b
B14	≤ 0.5 fold relative to huIFNα-2b
B15	≤ 0.25 fold relative to huIFNα-2b
B16	≤ 0.25 fold relative to huIFNα-2b
